From paper PMC6829326 (International Journal of Molecular Sciences, 2019)

target: T1, recombinant MERS-CoV S RBD protein (MERS-CoV, strain ; EMC/2012 …, UniProt K0BRG7); test: ELISA; settings: one partner purified
T1 construct: source: bought: Sino Biological Inc

Row | Binder | binding result
1 | C-8-2 scFv displayed on phage (scFv, V domains shown, also called C-8-2 clone) VH: EVQLVQSGAEVKKPGSSVKVSCKASGGTESSEAISWVRQAPGQGLEWMGGIIPFFGTANYAQKFQGRVTITADESTSTAYMELSSLRSEDTAVYYCARDGRKDYYGSGSYLHYYGMDVWGQGTTVTVSS VL: ELVMTQSPLSLPVTPGEPASISCRSSQSLLHSNGYNYLDWYLQRPGQSPQLLIYLGSNRASGVPDRFSGSGSGTDFTLKIGRVEAEDVGIYYCMQALQTPLTFGGGTKVEIK | binds
2 | C-8-2-4B-10D scFv displayed on phage (scFv, V domains shown) VH: EVQLVQSGAEVKKPGSSVKVSCKASDGKEKREAISWVRQAPGQGLEWMGGIIPFFDKANYAQKFQGRVTITADESTSTAYMELSSLRSEDTAVYYCARDGRKDYYGSGSYLHYYGMDVWGQGTTVTVSS VL: ELVMTQSPLSLPVTPGEPASISCRSSQSLVHSNGYNYLDWYLQRPGQSPQLLIYLGSNRASGVPDRFSGSGSGTDFTLKIGRVEAEDVGIYYCMQAVQTPLTFGGGTKVEIK | binds
3 | C-8-2-4B scFv displayed on phage (scFv, V domains shown, also called clone C-8-2-4B) VH: EVQLVQSGAEVKKPGSSVKVSCKASDGKEKREAISWVRQAPGQGLEWMGGIIPFFDKANYAQKFQGRVTITADESTSTAYMELSSLRSEDTAVYYCARDGRKDYYGSGSYLHYYGMDVWGQGTTVTVSS VL: ELVMTQSPLSLPVTPGEPASISCRSSQSLLHSNGYNYLDWYLQRPGQSPQLLIYLGSNRASGVPDRFSGSGSGTDFTLKIGRVEAEDVGIYYCMQALQTPLTFGGGTKVEIK | binds
